We go through three molecules from patent US20250276092A1 (Regeneron, published 2025).

Assay [1] concerns the target T1, human CD40 expressed on cells (human, UniProt P25942 21-277). The assay can be described thus: cell-based or functional assay.
Assay [2] concerns the target T2, mouse CD40 extracellular domain expressed with a C-terminal myc-myc-hexahistidine tag (mouse).
T2 construct: also called mCD40-MMH; REGN3098
T2 chain: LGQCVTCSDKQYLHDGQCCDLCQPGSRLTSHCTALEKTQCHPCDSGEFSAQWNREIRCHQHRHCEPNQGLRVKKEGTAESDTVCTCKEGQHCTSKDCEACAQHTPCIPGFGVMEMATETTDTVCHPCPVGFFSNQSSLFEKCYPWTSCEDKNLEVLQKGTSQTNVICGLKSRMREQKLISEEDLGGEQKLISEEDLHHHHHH
Put plainly: SPR 37C, captured mAb. As to the method:
(§1) The equilibrium dissociation constants (KD) for anti-CD40 bivalent and bispecific monoclonal antibodies (mAbs) were determined using a real-time surface plasmon resonance (SPR)-based Biacore 4000 biosensor. All binding studies were performed in 10 mM HEPES, 150 mM NaCl, 3 mM EDTA, and 0.05% v/v surfactant Tween-20, pH 7.4 (HBS-ET) running buffer at 25° C. and 37° C. The Biacore CM5 sensor surface was first derivatized by amine coupling with a monoclonal mouse anti-human Fc antibody (REGN2567) to capture anti-CD40 bivalent parental and anti-CD40×CD40 bispecific antibodies. Different concentrations of CD40 reagents, human CD40 extracellular domain expressed with a C-terminal myc-myc-hexahistidine tag (“hCD40-MMH”; REGN3094; SEQ ID NO: 53), monkey CD40 extracellular domain expressed with a C-terminal myc-myc-hexahistidine tag (“mfCD40-MMH”; REGN3097; SEQ ID NO: 54), and mouse CD40 extracellular domain expressed with a C-terminal myc-myc-hexahistidine tag (“mCD40-MMH”; REGN3098; SEQ ID NO: 55), at concentrations ranging from 3.7 nM to 100 nM or 3.3 nM to 90 nM in a series of 3-fold dilutions prepared in HBS-ET running buffer were injected at a flow rate of […] for 4 minutes or […] for 5 minutes. The dissociation of different CD40 reagents bound to anti-CD40 bivalent parental and anti-CD40×CD40 bispecific antibodies was monitored for 10 minutes in HBS-ET running buffer. At the end of each cycle, the anti-CD40 bivalent parental and anti-CD40×CD40 bispecific antibodies capture surface was regenerated using a 12 sec injection of 20 mM H₃PO₄.
(§2) The association rate (ka) and dissociation rate (kd) were determined by fitting the real-time binding sensorgrams to a 1:1 binding model with mass transport limitation using Scrubber 2.0c curve-fitting software. Binding dissociation equilibrium constant (KD) and dissociative half-life (t½) were calculated from the kinetic rates as: KD (M)=kd/kₐ, and t_{1/2} (min)=[ln(2)/(60*kd)].

Assay [3] deals with T3, human CD40 extracellular domain expressed with a C-terminal myc-myc-hexahistidine tag (human).
T3 construct: also called hCD40-MMH; hCD40-mmH
The assay can be described thus: SPR 37C, captured mAb. Here is the method: as §1, §2

In assay [4] the target is T1, human CD40 expressed on cells. Put plainly: cell-based or functional assay. This is another data set of the same source.
Assay [5] has the same target. Put plainly: cell-based or functional assay. The source holds these as a separate data set.
The target of assay [6] is T4, monkey CD40 extracellular domain expressed with a C-terminal myc-myc-hexahistidine tag (monkey).
T4 construct: also called mfCD40-MMH; REGN3097
T4 chain: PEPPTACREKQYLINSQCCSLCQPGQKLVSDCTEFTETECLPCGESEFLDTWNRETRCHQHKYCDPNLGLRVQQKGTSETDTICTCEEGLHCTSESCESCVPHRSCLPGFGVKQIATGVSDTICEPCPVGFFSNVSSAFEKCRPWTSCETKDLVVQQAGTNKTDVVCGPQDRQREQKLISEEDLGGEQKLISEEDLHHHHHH
Put plainly: SPR 25C, captured mAb. Here is the method:
as §1, §2

Assay [7] addresses T2, mouse CD40 extracellular domain …. The assay can be described thus: SPR 25C, captured mAb. As to the method: as §1, §2
The target in assay [8] is T3, human CD40 extracellular domain …. Put plainly: SPR 25C, captured mAb. Here is the method: as §1, §2
Assay [9] shares this target. The assay can be described thus: ELISA, blocks 40 nM hCD40-mmH binding to coated 9His-hCD40L. Here is the method:
In the blocking assay, 9His-hCD40L was passively absorbed at a concentration of 5 μg/mL in PBS on a 96-well microtiter plate overnight at 4° C. […] In a separate 96-well microtiter plate, a fixed amount of 40 nM hCD40-mmH was pre-mixed with one of the following antibodies, at concentrations ranging from 977 pM to 1 μM in PBS+0.5% BSA: (1) anti-CD40×CD40 bispecific antibodies (REGN16431, REGN16432, REGN16634, and REGN16335); (2) parental anti-CD40 mAbs (bivalent antibodies comprising 2 fragment antigen-binding [Fab] arms identical to one of anti-CD40 Fab of anti-CD40×CD40 antibodies); (3) anti-CD40×Irrelevant antibodies (bivalent antibodies that incorporate one Fab arm identical to one of anti-CD40 Fab of anti-CD40×CD40 antibodies and another Fab arm specific to an irrelevant antigen); and (4) human IgG4 with Fc mutation isotype control antibodies (REGN7540 and REGN4513). The fixed concentration of hCD40-mmH was selected to be near the concentration (EC₅₀ value) that generated 50% of the maximal binding to the plate-adhered 9His-hCD40L. After one-hour incubation, the antibody-antigen complexes were transferred to the microtiter plate coated with 9His-hCD40L. After one hour incubation at room temperature, the plates were washed, and plate-bound hCD40-mmH protein was detected with horseradish peroxidase (HRP) conjugated goat anti-c-Myc antibody. The plates were then developed using TMB substrate solution (BD Biosciences) according to the manufacturer's recommended procedure and the absorbance at 450 nm (OD₄₅₀) was measured on a SpectraMax i3× plate reader.
Binding data were analyzed using a sigmoidal (four-parameter logistic) dose-response model with GraphPad Prism™ software. […] The percent blocking of tested antibodies at the highest tested concentration ([…]) was calculated based on the formula shown below: […]
A general note: An ELISA detects its analyte on a solid surface through an enzyme-linked reagent.

For assay [10], the target named is T1, human CD40 expressed on cells. The assay can be described thus: cell-based or functional assay. The source holds these as a separate data set.
Assay [11] shares this target. The assay can be described thus: cell-based or functional assay. This is another data set of the same source.
The target is the same in assay [12]. Put plainly: cell-based or functional assay. The source holds these as a separate data set.

T1 sequence (P25942 21-277): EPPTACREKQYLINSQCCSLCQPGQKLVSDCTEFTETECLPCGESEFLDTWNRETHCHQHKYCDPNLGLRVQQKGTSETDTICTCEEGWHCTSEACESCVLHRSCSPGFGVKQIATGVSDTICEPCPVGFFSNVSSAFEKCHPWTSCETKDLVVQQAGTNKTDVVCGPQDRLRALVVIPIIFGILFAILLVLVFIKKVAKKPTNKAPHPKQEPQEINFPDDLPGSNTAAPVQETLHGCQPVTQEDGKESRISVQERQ

B1: 30027P2 (antibody, human IgG4 S228P, kappa, V domains shown)
VH: EVQLVESGGGLVQPGGSLRLSCAASGFTFSSYAMNWVRQAPGKGLEWVSIISGTIGKTYYADSVKGRFTISRDNSKNTLYLQMNSLRGEDTAVYYCAKDTERDITGSPFDYWGQGTLVTVSS
VL: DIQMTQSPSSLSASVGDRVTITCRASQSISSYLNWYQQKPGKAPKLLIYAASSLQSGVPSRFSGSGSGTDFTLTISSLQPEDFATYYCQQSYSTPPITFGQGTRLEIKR
notes: Parental bivalent anti-CD40 mAb; also called H4sH30027P2
Turning to B1, in [1], the “IC50, NFkB-luc Raji, 900 pM hCD40L” value amounted to 8.95e-12 M; the “Max % activation, NFkB-luc Raji, no ligand” value was 9%; the “Max % inhibition, NFkB-luc Raji, 900 pM hCD40L” value (shortened to “Max % inhibition, NFkB-luc Raji”) is 67%. Besides, the “100 nM Ag Bound (RU)” value in assay [2] was 0.2 RU. Further, the “100 nM Ag Bound (RU)” value in assay [3] is 66.5 RU. In addition, in [4], the “EC50 in the presence of CD40L (potentiation), NFkB-luc THP-1, 10 nM hCD40L” value is 0.00251 nM; the “Max % activation, NFkB-luc THP-1, no ligand” value is 2%; the “Max % inhibition, NFkB-luc THP-1, 10 nM hCD40L” value (shortened to “Max % inhibition … 10 nM hCD40L”) is -61%. Further, in assay [5], the “EC50 in the presence of CD40L (potentiation), NFkB-luc Ramos, 500 pM hCD40L” value is 8.14e-12 M; the “Max % activation, NFkB-luc Ramos, no ligand” value was determined as 8%; the “Max % inhibition, NFkB-luc Ramos, 500 pM hCD40L” value (shortened to “Max % inhibition, NFkB-luc Ramos”) is -130%. Further, the “100 nM Ag Bound (RU)” value in assay [6] came out at 63.1 RU. Besides, in [7], the “100 nM Ag Bound (RU)” value worked out at 0.2 RU. Besides, in assay [8], the “100 nM Ag Bound (RU)” value amounted to 62 RU.

B2: 21520P2 (antibody, human IgG4 S228P, kappa, V domains shown)
VH: EVQLVESGGGLVQPGGSLRLSCAASGFTFGSYGMAWVRQAPGKGLEWVSAISGSGDYTNYADSVKRRFTISRDNSKNTLYLQMSSLRAEDTAVYYCAKEKTGTTGYLYSGMDVWGQGTTVTVSS
VL: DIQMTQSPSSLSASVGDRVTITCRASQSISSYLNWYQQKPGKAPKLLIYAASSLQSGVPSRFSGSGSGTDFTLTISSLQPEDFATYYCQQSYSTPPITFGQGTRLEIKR
notes: Parental bivalent anti-CD40 mAb; also called H4sH21520P2
Consider B2, for which, in assay [1], the “EC50, NFkB-luc Raji, no ligand” value is above 100 nM; the “IC50, NFkB-luc Raji, 900 pM hCD40L” value came out at 7.7e-11 M; the “Max % activation, NFkB-luc Raji, no ligand” value amounted to 25%; the “Max % inhibition, NFkB-luc Raji” value came out at 81%. Besides, the “100 nM Ag Bound (RU)” value in [2] is 0.2 RU. Besides, the “100 nM Ag Bound (RU)” value in assay [3] came out at 67.2 RU. Also, in assay [4], the “IC50, NFkB-luc THP-1, 10 nM hCD40L” value is 0.437 nM; the “Max % activation, NFkB-luc THP-1, no ligand” value worked out at 1%; the “Max % inhibition … 10 nM hCD40L” value turned out to be 97%. Also, in assay [5], the “EC50, NFkB-luc Ramos, no ligand” value was above 10 nM; the “IC50 (three highest concentrations excluded, hook effect), NFkB-luc Ramos, 500 pM hCD40L” value came out at 8.06e-11 M; the “Max % activation, NFkB-luc Ramos, no ligand” value came to 49%; the “Max % inhibition, NFkB-luc Ramos” value worked out at 63%. Also, the “% Blocking at highest mAb concentration” value in assay [9] worked out at 94%. Moreover, the “100 nM Ag Bound (RU)” value in assay [6] came out at 10.1 RU. For the same molecule, the “100 nM Ag Bound (RU)” value in assay [7] is -0.5 RU. The “100 nM Ag Bound (RU)” value in [8] worked out at 76.6 RU.

B3: REGN16432 (bispecific antibody, human IgG4 S228P, kappa)
heavy 1: EVQLVESGGGLVQPGGSLRLSCAASGFTFSSYAMNWVRQAPGKGLEWVSIISGTIGKTYYADSVKGRFTISRDNSKNTLYLQMNSLRGEDTAVYYCAKDTERDITGSPFDYWGQGTLVTVSSASTKGPSVFPLAPCSRSTSESTAALGCLVKDYFPEPVTVSWNSGALTSGVHTFPAVLQSSGLYSLSSVVTVPSSSLGTKTYTCNVDHKPSNTKVDKRVESKYGPPCPPCPAPPVAGPSVFLFPPKPKDTLMISRTPEVTCVVVDVSQEDPEVQFNWYVDGVEVHNAKTKPREEQFNSTYRVVSVLTVLHQDWLNGKEYKCKVSNKGLPSSIEKTISKAKGQPREPQVYTLPPSQEEMTKNQVSLTCLVKGFYPSDIAVEWESNGQPENNYKTTPPVLDSDGSFFLYSRLTVDKSRWQEGNVFSCSVMHEALHNHYTQKSLSLSLGK
heavy 2: EVQLVESGGGLVQPGGSLRLSCAASGFTFGSYGMAWVRQAPGKGLEWVSAISGSGDYTNYADSVKRRFTISRDNSKNTLYLQMSSLRAEDTAVYYCAKEKTGTTGYLYSGMDVWGQGTTVTVSSASTKGPSVFPLAPCSRSTSESTAALGCLVKDYFPEPVTVSWNSGALTSGVHTFPAVLQSSGLYSLSSVVTVPSSSLGTKTYTCNVDHKPSNTKVDKRVESKYGPPCPPCPAPPVAGPSVFLFPPKPKDTLMISRTPEVTCVVVDVSQEDPEVQFNWYVDGVEVHNAKTKPREEQFNSTYRVVSVLTVLHQDWLNGKEYKCKVSNKGLPSSIEKTISKAKGQPREPQVYTLPPSQEEMTKNQVSLTCLVKGFYPSDIAVEWESNGQPENNYKTTPPVLDSDGSFFLYSRLTVDKSRWQEGNVFSCSVMHEALHNRFTQKSLSLSPGK
light: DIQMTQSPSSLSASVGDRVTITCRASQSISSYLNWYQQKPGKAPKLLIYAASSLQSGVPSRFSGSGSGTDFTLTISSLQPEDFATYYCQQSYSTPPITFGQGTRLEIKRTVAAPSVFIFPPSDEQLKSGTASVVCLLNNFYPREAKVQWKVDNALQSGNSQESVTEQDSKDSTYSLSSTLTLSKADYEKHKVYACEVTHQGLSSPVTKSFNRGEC
Take B3: in assay [10], the “% max blockade relative to no mAb, IL-6, B cells, donor 1” value worked out at 83.5%; the “% max blockade relative to no mAb, IL-6, B cells, donor 2” value came to 92%; the “% max blockade relative to no mAb, IL-6, B cells, donor 3” value came to 92%. In assay [1], the “IC50, NFkB-luc Raji, 900 pM hCD40L” value worked out at 1.02e-10 M; the “Max % activation, NFkB-luc Raji, no ligand” value amounted to 5%; the “Max % inhibition, NFkB-luc Raji” value amounted to 68%. In [11], the “% max blockade relative to no mAb, TNFa, B cells, donor 1” value amounted to 53.5%; the “% max blockade relative to no mAb, TNFa, B cells, donor 2” value was 68.4%; the “% max blockade relative to no mAb, TNFa, B cells, donor 3” value came to 69.1%. The “100 nM Ag Bound (RU)” value in assay [3] came to 56.6 RU. In [4], the “IC50, NFkB-luc THP-1, 10 nM hCD40L” value stood at 0.148 nM; the “Max % activation, NFkB-luc THP-1, no ligand” value turned out to be 6%; the “Max % inhibition … 10 nM hCD40L” value worked out at 97%. Also, in [12], the “% max blockade relative to no mAb, IL-10, B cells, donor 1” value was 81.5%; the “% max blockade relative to no mAb, IL-10, B cells, donor 2” value amounted to 94.5%; the “% max blockade relative to no mAb, IL-10, B cells, donor 3” value is 90.6%. In assay [5], the “IC50, NFkB-luc Ramos, 500 pM hCD40L” value was 4.92e-11 M; the “Max % activation, NFkB-luc Ramos, no ligand” value came out at 4%; the “Max % inhibition, NFkB-luc Ramos” value amounted to 94%. For the same molecule, the “% Blocking at highest mAb concentration” value in assay [9] was determined as 95%. Further, in assay [8], the “100 nM Ag Bound (RU)” value was 56.6 RU.
